Data on 2 substances can be found in PMC8539644.

For this assay, the target named is GerD–mScarlet-I (Bacillus cereus ATCC 14579). The experiment in a line: FRET or BRET; sensitized emission (filter) FRET by wide-field fluorescence microscopy in single dormant B. cereus spores; donor SGFP2, acceptor mScarlet-I; normalized FRET (NFRET) corrected for bleed-through and cross-excitation. (In general: BRET reads energy transfer from a luciferase to a nearby fluorophore.)

Take GerR(A-C-B)–SGFP2 (complex): the FRET efficiency was found to be 6%. Turning to GerRB–SGFP2 (natural protein), the FRET efficiency was 6%.
